The results in this text go back to patent US20230038720A1.

Sequences and labels used below:
B1: Peptide 2 (peptide)
chain: cyclo(GVCICRRRFCLCRR)
modifications: disulfide (positions not given here); not fully specified (bridges)
B2: Peptide 8 (peptide)
chain: cyclo(GVCSCRRRFCLCRR)
modifications: disulfide (positions not given here); not fully specified (bridges)
B3: Peptide 3 (peptide)
chain: cyclo(GVCLCRRGVCLCRR)
modifications: disulfide (positions not given here); not fully specified (bridges)
B4: Peptide 5 (peptide)
chain: cyclo(GVCACARRFCACRR)
modifications: disulfide (positions not given here); not fully specified (bridges)
B5: Peptide 10 (peptide)
chain: cyclo(GVCACRRRFCACRR)
modifications: disulfide (positions not given here); not fully specified (bridges)
B6: Peptide 1 (peptide)
chain: cyclo(GVCICRRRVCICGR)
modifications: disulfide (positions not given here); not fully specified (bridges)
B7: Peptide 7 (peptide)
chain: cyclo(GVCICRRRFCSCRR)
modifications: disulfide (positions not given here); not fully specified (bridges)
B8: Peptide 4 (peptide)
chain: cyclo(GVCICRRGVCICRR)
modifications: disulfide (positions not given here); not fully specified (bridges)
B9: Peptide 6 (peptide)
chain: cyclo(GVCSCRRRFCICRR)
modifications: disulfide (positions not given here); not fully specified (bridges)
B10: Peptide 9 (peptide)
chain: cyclo(GACICRRRFCLCRR)
modifications: disulfide (positions not given here); not fully specified (bridges)

The assay deals with TACE. As to the kind of experiment: cell-based or functional assay.
For the molecule B1, the TACE IC50 turned out to be 2.2 µg/mL.

The molecule B2 had a TACE IC50 of 2.61 µg/mL.

For B3, the TACE IC50 was 1.15 µg/mL.

As to B4, the TACE IC50 worked out at 1.83 µg/mL.

For B5, the TACE IC50 was 2.74 µg/mL.

For B6, the TACE IC50 amounted to 0.858 µg/mL.

With B7, the TACE IC50 is 1.87 µg/mL.

For B8, the TACE IC50 worked out at 0.546 µg/mL.

With B9, the TACE IC50 came out at 3.19 µg/mL.

B10: the TACE IC50 is 0.515 µg/mL.
